Assay results from patent US20200017862.

Molecular target: WT His-tagged PCNA (recombinant Xenopus PCNA) (UniProt P18248)
Sequence (P18248 whole entry): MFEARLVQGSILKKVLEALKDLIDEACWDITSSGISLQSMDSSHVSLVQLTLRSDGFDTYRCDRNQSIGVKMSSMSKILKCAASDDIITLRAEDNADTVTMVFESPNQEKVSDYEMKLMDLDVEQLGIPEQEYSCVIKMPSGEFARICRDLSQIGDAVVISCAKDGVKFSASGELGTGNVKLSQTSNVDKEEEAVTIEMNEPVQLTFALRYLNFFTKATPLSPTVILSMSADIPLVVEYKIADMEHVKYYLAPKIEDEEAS

Row | Substance | exonuclease activity on FAM-labeled gapped dsDNA, purified proteins in vitro
1 | C470A GST-APE2 (mutant of full GST-APE2) | the gapped dsDNA structure was still resected by C470A APE2 or F486A-Y487A APE2 to some extent similar to WT APE2 with the presence of WT PCNA
2 | F486A-Y487A GST-APE2 (mutant of full GST-APE2) | the gapped dsDNA structure was still resected by C470A APE2 or F486A-Y487A APE2 to some extent similar to WT APE2 with the presence of WT PCNA
